The results in this text go back to publication PMC10403546 (Nature Communications, 2023).

What all share (assay): SPR
Conditions in all cases: both partners purified

For assay [1], the target named is T1, X18 UFO (CRF01_AE Env), wild type, for SPR (HIV-1 BJOX018000.e12 (X18, CRF01_AE), stabilised).
T1 construct: source: FreeStyle 293F, transient transfection (PEI), purified (GNL resin, SEC)

The target of assay [2] is T2, Q769 UFO (subtype A Env of Q769_d22) (HIV-1 Q769_d22 (subtype A), UniProt Q8JDJ1, stabilised).
T2 construct: source: FreeStyle 293F, transient transfection (PEI), purified (GNL resin, SEC)

For assay [3], the target named is T3, X18 SOSIP-His (CRF01_AE Env trimer in SOSIP design) (HIV-1 BJOX018000.e12 (X18, CRF01_AE), UniProt A0A0E3EAY4, stabilised).
T3 construct: copies: 3 + 3

For assay [4], the target named is T4, BG505 SOSIP-His (subtype A Env trimer) (HIV-1 BG505 (subtype A), UniProt Q2N0S6, stabilised).
T4 construct: copies: 3 + 3

In assay [5] the target is T5, X16 SOSIP-His (CRF07_BC Env trimer in SOSIP design) (HIV-1 BJOX016000.e15 (X16, CRF07_BC), UniProt A0A0E3EAD6, stabilised).
T5 construct: copies: 3 + 3

B1: bNAb F6 Fab (for SPR) (Fab, V domains shown)
VH: QVQLQQWGTGLLKPSETLSLTCAVYGVSLRGYYWTWIRQSPKKGLEWIGEIDEIGRTKYSQSLRSRATLSIDTSKKQFSLRLTSVTAADMATYYCARWRLMMVDEVTRHGMDVWSQGTMVTVSS
VL: DIVMTQSPLSLSVAPGEAASISCRSTQSLLNRNGDNYLEWYLRRPGRSPQLLIYLGSERALGVPDRFSGSGSGRDFTLKISRVEAQDVGTYYCLQTRQGAFTFGQGTKLEIK
Broadly, the Kd is the free concentration of one partner at which half of the binding sites on the other are occupied at equilibrium, for simple one-to-one binding. B1: the Kd in assay [1] is 0.041 nM. Besides, the binding result in assay [2] is “binds”.

B2: bNAb 8ANC195 Fab (for SPR) (Fab, V domains shown)
VH: QIHLVQSGTEVKKPGSSVTVSCKAYGVNTFGLYAVNWVRQAPGQSLEYIGQIWRWKSSASHHFRGRVLISAVDLTGSSPPISSLEIKDLTSDDTAVYFCTTTSTYDKWSGLHHDGVMAFSSWGQGTLISVSA
VL: DIQMTQSPSTLSASIGDTVRISCRASQSITGNWVAWYQQRPGKAPRLLIYRGAALLGGVPSRFSGSAAGTDFTLTIGNLQAEDFGTFYCQQYDTYPGTFGQGTKVEVK
For B2, the binding result in assay [3], in assay [4] and in assay [5] was “binds” each time.
